According to paper PMC10509353, “Increased intracellular persulfide levels attenuate HlyU-mediated hemolysin transcriptional activation in Vibrio cholerae” (The Journal of Biological Chemistry, 2023):

T1: HlyU (VcHlyU), WT (Vibrio cholerae, UniProt P52695 1-108)
T1 sequence: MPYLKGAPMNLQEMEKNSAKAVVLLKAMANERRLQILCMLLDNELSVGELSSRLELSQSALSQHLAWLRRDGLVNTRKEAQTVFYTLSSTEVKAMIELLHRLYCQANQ


Experiments:
[1] = target: the molecule itself; assay: SEC; calibrated Superdex 75 gel-filtration column; 25 mM MES, 0.2 M NaCl, 2 mM EDTA, 2 mM TCEP, 5% glycerol, pH 6, 25 °C
HlyU (VcHlyU), WT [2] = target: T1, HlyU (VcHlyU), WT; assay: fluorescence anisotropy; reduced HlyU (TCEP), 100 mM NaCl; n=4; Table 1: 25 mM Hepes pH 7, 100 mM NaCl, 1 mM EDTA, 25 °C; Methods: 10 mM Hepes pH 7.0, 0.1 M NaCl, with or without 2 mM TCEP, 10 nM DNA; conditions: protein: recombinant; chain copies: 2; label: 5'-fluorescein on strand 1; blunt
HlyU (VcHlyU), WT [3] = target: T1, HlyU (VcHlyU), WT; assay: fluorescence anisotropy; HlyU pretreated with 5-fold H2O2; text: no change in affinity; n=3; Table 1: 25 mM Hepes pH 7, 100 mM NaCl, 1 mM EDTA, 25 °C; Methods: 10 mM Hepes pH 7.0, 0.1 M NaCl, with or without 2 mM TCEP, 10 nM DNA; conditions: protein: recombinant; chain copies: 2; label: 5'-fluorescein on strand 1; blunt

Binder | stoichiometry N [1] | Ka (HlyU (VcHlyU), WT [2]) | Ka (HlyU (VcHlyU), WT [3])
Vibrio cholerae HlyU (natural protein, also called VcHlyU; WT HlyU) MPYLKGAPMNLQEMEKNSAKAVVLLKAMANERRLQILCMLLDNELSVGELSSRLELSQSALSQHLAWLRRDGLVNTRKEAQTVFYTLSSTEVKAMIELLHRLYCQANQ | 2 |  | 
hlyO operator (hlyA promoter) (dsDNA) DNA 1: TATAAATTAATTCAGACTAAATTAGTTCAAA DNA 2: TTTGAACTAATTTAGTCTGAATTAATTTATA |  | 0.4 ± 0.08 10^9 M^-1 | 0.19 ± 0.03 10^9 M^-1
